Assay results: paper PMC5508000, “Identification of the Components Involved in Cyclic Di-AMP Signaling in Mycoplasma pneumoniae” (Frontiers in Microbiology, 2017)

Experiments:
[1] = tested on: O=[N+]([O-])c1ccc(OP(=O)(O)Oc2ccc([N+](=O)[O-])cc2)cc1; experiment: OD410 nitrophenol release, microplate; format: biochemical, Mycoplasmoides pneumoniae; conditions: MnCl2 0.1 mM, 100 mM Tris-HCl pH 8.3, 10 mM NaCl, 37 °C
Text: OD410 nitrophenol release, microplate on MPN549 (PdeM)

KtrC (MPN461) = target: T1, KtrC (MPN461) (Mycoplasmoides pneumoniae, UniProt P75322); experiment: pull-down on c-di-AMP agarose, elution with free c-di-AMP, MS identification; format: binding; conditions: labelled compound: immobilised 2'-AHC-c-di-AMP agarose, eluted with 1 mM free c-di-AMP; cell extract; pH 7.5, 4 °C
T1 construct: gene MPN_461; native protein from M. pneumoniae cell extract, identified by mass spectrometry
T1 sequence (P75322 1-231): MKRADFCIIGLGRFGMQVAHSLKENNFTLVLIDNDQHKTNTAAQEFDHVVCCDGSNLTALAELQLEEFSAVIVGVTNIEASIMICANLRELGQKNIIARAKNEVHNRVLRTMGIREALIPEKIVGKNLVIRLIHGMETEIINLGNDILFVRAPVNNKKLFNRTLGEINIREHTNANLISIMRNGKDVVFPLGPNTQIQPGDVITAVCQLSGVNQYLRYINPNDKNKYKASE

[2] = substrate: O=[N+]([O-])c1ccc(OP(=O)(O)Oc2ccc([N+](=O)[O-])cc2)cc1; experiment: OD410 nitrophenol release, microplate; format: biochemical, Mycoplasmoides pneumoniae; conditions: MnCl2 0.1 mM, 100 mM Tris-HCl pH 8.3, 10 mM NaCl, 37 °C; remark: listed apart in the source
Text: OD410 nitrophenol release, microplate on MPN140 (NrnA)

[3] = substrate: O=[N+]([O-])c1ccc(OP(=O)(O)Oc2ccc([N+](=O)[O-])cc2)cc1; experiment: OD410 nitrophenol release, microplate; format: biochemical, Bacillus subtilis; conditions: MnCl2 0.1 mM, 100 mM Tris-HCl pH 8.3, 10 mM NaCl, 37 °C
Text: OD410 nitrophenol release, microplate on GdpP

## MPN549 (PdeM) (Mycoplasmoides pneumoniae M129)
[1]
  Km: 600 µM

## Nc1ncnc2c1ncn2[C@@H]1O[C@@H]2COP(=O)(O)O[C@H]3[C@@H](O)[C@H](n4cnc5c(N)ncnc54)O[C@@H]3COP(=O)(O)O[C@H]2[C@H]1O [c-di-AMP]
KtrC (MPN461)
  pull-down on c-di-AMP agarose, elution with free c-di-AMP, MS identification: c-di-AMP-binding proteins were eluted with free c-di-AMP

B1: MPN140 (NrnA) (Mycoplasmoides pneumoniae M129) (protein)
chain: MNSQVHRKGSIAEAVSAIQAHDKIVIFHHIRPDGDCLGAQHGLARLIQTNFPHKQVFCVGDPKHNFPWLEMVFTPKEQITPELMQQALAVIVDANYKERIECRDLLDQNQFKAVLRIDHHPNEDDLNTTHNFVDASYIAAAEQVVDLAVQAKWKLSPPAATALYLGIYTDSNRFLYSNTSWRTLYLGSMLYRAQANIAKIHDELNHTSLKDIQFKQYVFKNFQTFQNVIYFVADKKFQKKLKVTPLECARVNILANIEQFHIWLFFIEEGKNHYRVEFRSNGINVREVALKYGGGGHIQASGAVLKSKRDIIRVVQDCQKQIAV
[2]
  Km: 1600 µM
  kcat: 3.67e-06 s⁻¹

B2: GdpP (Bacillus subtilis subsp. subtilis str. 168) (protein)
chain: PIGIMLFNDQYYIEWANPFLSSCFNESTLVGRSLYDTCESVVPLIKQEVESETVTLNDRKFRVVIKRDERLLYFFDVTEQIQIEKLYENERTVLAYIFLDNYDDVTQGLDDQTRSTMNSQVTSLLNAWAQEYGIFLKRTSSERFIAVLNEHILTELENSKFSILDEVREKTSFDGVALTLSVGVGASVSSLKELGDLAQSSLDLALGRGGDQVAIKLPNGKVKFYGGKTNPMEKRTRVRARVISHALKEIVTESSNVIIMGHKFPDMDSIGAAIGILKVAQANNKDGFIVIDPNQIGSSVQRLIGEIKKYEELWSRFITPEEAMEISNDDTLLVIVDTHKPSLVMEERLVNKIEHIVVIDHHRRGEEFIRDPLLVYMEPYASSTAELVTELLEYQPKRLKINMIEATALLAGIIVDTKSFSLRTGSRTFDAASYLRAKGADTVLVQKFLKETVDSYIKRAKLIQHTVLYKDNIAIASLPENEEEYFDQVLIAQAADSLLSMSEVEASFAVARRDEQTVCISARSLGEVNVQIIMEALEGGGHLTNAATQLSGISVSEALERLKHAIDEYFEGGVQR
notes: cytoplasmic portion, residues 84-659, C-terminal Strep-tag, expressed in E. coli BL21(DE3), plasmid pGP2720
[3]
  Km: 1450 µM
